Laboratory results: paper PMC3479192
Read-outs that look alike come from different tables or passages of the source.

Assays:
Assay in all cases: dynamic light scattering
[1] = molecular target: full-length BLM protein (human) (UniProt P54132)
[2] = molecular target: full-length BLM protein (human) (UniProt P54132); remark: listed apart in the source
[3] = molecular target: full-length BLM protein (human) (UniProt P54132); remark: listed apart in the source

stoichiometry N [1]: 6
stoichiometry N [2]: 3
% mass in the high-order oligomer peak (radius 9.9 nm) [3]: 96.1%
% mass in the high-order oligomer peak (radius 10.1 nm) [3]: 97.2%
% mass in the high-order oligomer peak (radius 12.6 nm) [3]: 62.2%
% mass in the high-order oligomer peak (radius 12.7 nm) [3]: 57.8%
% mass in the high-order oligomer peak (radius 20.3 nm) [3]: 90.5%
% mass in the low-order oligomer peak (radius 8.2 nm) [3]: 37.8%
stoichiometry N [3]: 6
Substance: full-length BLM protein, P54132 1-1417 (enzyme; other documents disagree on this pair)
